Source: patent US20050074863A1, “T-cell epitodes in carboxypeptidase g2” (priority 2001, published 2005)

Tested on: human T-cells
Assay: Human PBMC in vitro proliferation assay with wild-type or modified CPG2 protein
Assay type: cell-based
Procedure: A modified protein was prepared according to the method of examples 3-5. The modified protein contained multiple substitutions from the wild-type sequence. Positive control protein was wild-type CPG2.
For T cell proliferation assays 4×10^6 PBMC (per well) from healthy donors were incubated with unmodified and modified […] in 2 ml bulk cultures (in 24 well plates). Each donor culture was treated with modified and unmodified CPG2 at 5 and 50 μg/ml. In addition an untreated control bulk culture was maintained enabling stimulation indexes to be determined. At days 5, 6, 7 and 8 cells for each bulk culture were gently agitated and 50 μl samples removed in triplicate for determination of the proliferation index. The 50 μl sample aliquots were each transferred to 3 wells of a U-bottom 96 well plate. Fresh AIM V media (130 μl) was added to each of the 96 wells. Cells were pulsed (for 18-21 hours) with 1 μCi [^3H]Thymidine per well diluted in a total volume of 20 ul AIM V media. The total volume for each culture was 200 μl. CPM values were collected using a beta-plate reader and the stimulation index for each time point determined as per Example 2.
The SI was plotted for each time point and treatment.

B1: carboxypeptidase G2 (protein, UniProt P06621 23-415, looked up)
Carboxypeptidase G2: ALAQKRDNVLFQAATDEQPAVIKTLEKLVNIETGTGDAEGIAAAGNFLEAELKNLGFTVTRSKSAGLVVGDNIVGKIKGRGGKNLLLMSHMDTVYLKGILAKAPFRVEGDKAYGPGIADDKGGNAVILHTLKLLKEYGVRDYGTITVLFNTDEEKGSFGSRDLIQEEAKLADYVLSFEPTSAGDEKLSLGTSGIAYVQVNITGKASHAGAAPELGVNALVEASDLVLRTMNIDDKAKNLRFNWTIAKAGNVSNIIPASATLNADVRYARNEDFDAAMKTLEERAQQKKLPEADVKVIVTRGRPAFNAGEGGKKLVDKAVAYYKEAGGTLGVEERTGGGTDAAYAALSGKPVIESLGLPGFGYHSDKAEYVDISAIPRRLYMAARLIMDLGAGK
modifications: 6xHis tag
notes: bacterial enzyme from Pseudomonas sp. strain RS-16, 390 residues, recombinant 6xHis tagged; positive control protein
proliferative response (stimulation index) to whole protein (responsive donors #1 and #16, 5 and 50 μg/ml, days 5-8, 3H-thymidine): significant proliferative response | time of peak proliferative response (responsive donors, 5 and 50 μg/ml): 7 days
